Consider two molecules from patent US20140140926A1.

No end group written: not given here.

The target in assay [1] is soluble hSIRP-alpha (human) (UniProt P78324). Nature of the assay: inhibition of soluble hSIRP-alpha binding to polypeptide beads by soluble peptide.
The target is the same in assay [2]. Nature of the assay: flow cytometry, biotinylated peptide on streptavidin polystyrene beads binding soluble hSIRP-alpha, saturation binding fit.

In the case of EVTELTREGE (synthesized without attachment of biotin) [FG-hairpin (10-aa, …)], the Ki in assay [1] lay within 0.1 to 0.2 µM. In the case of GNYTCEVTELTREGETIIELK (also: biotin via aminohexanoic acid (C6) or PEG linker, site not given here) [FG-peptide (21-aa, …)], the Kd in assay [2] fell in the range of 0.11 to 0.16 µM.
